Test results taken from the DeepSol protein solubility set.

Experiment: soluble on expression in E. coli; label from the status in PepcDB or PDB records

| Sequence | soluble on expression in E. coli |
| --- | --- |
| MSLALRSLIADARRLVVKVGSSLVTDDGRGLDQAAIARWAAQIAALRAAGKEVVLVSSGAIAEGMQRLGWTRRPKEIHELQAAAAVGQMGLAQVYESEFARHGIRTAQVLLTHGDLADRERYLNARSTLLTLLGLGVVPIINENDTVVTDEIKFGDNDTLGALVTNLIEGDALIILTDQRGLYTADPRKHPDARFVDEAQAGAPELEAMAGGAGSSIGKGGMLTKIVAAKRAAKSGAHTVIASGREADVLARLAGGEAIGTQLRAPTGRMAARKQWMIDHLQLRGRVVLDAGAVDKLTAGGKSLLPIGVTEVQGEFARGEVISCVDTAGREVARGLTNYSAAEARLIARKASSEIEAVLGYVSAAELVHRDNLVLLEGHHHHHH | soluble |
| MGSDKIHHHHHHMAEITSISQFLSTAKTQFQVYDLGRRVQHIDAMAFAQIEALQAPYPYPIQGHAKMALVFWDASEQHFVWFISLPLDERGLLSPAPRSHFIQMILEALGQDLTRTLSEDEQQKMANHPFSFKPTQEKLAVFNALVRRHLGRSASSQYEFAAQYLSGQLPAESWPNVGFQGLADICVRLGELDHAAMVARALKNAPMEVQIALCQCLEHVLVSDEVKDALLAGLEEHRDARLIYFLRALGSQSDASVRAIASLAEKRLLTEEVLICIAGRNWLALRDDVCRKNFLEALALMPQDFFNQVFADIVAIPALRTSMLMAIRDPNRSDALSLAIGGLFKATKS | not soluble |
| MSKVLVLKSSILAGYSQSGQLTDYFIEQWREKHVADEITVRDLAANPVPVLDGELVGAMRPGDAPLTPRQQDALALSDELIAELKAHDVIVIAAPMYNFNIPTQLKNYFDLIARAGITFRYTEKGPEGLVTGKRAVVLSSRGGIHKDTPTDLIAPYLKVFLGFIGITDVNFVFAEGIAYGPEVAAKAQADAKAAIDSVVAA | soluble |
| MGSDKIHHHHHHMATVISMINLKGGVGKTTLTVAMAEFMAAEYGLKVLVVDLDPQTNATVALINELEWRKRNIRGQTLLNIFLDHLSKYQVFSLEEAIVHNVSNVNGGIEGLDLLPSSIDLIEVHDEFLQAIPSLPINPLHLLDDVLRAALSAYDIVLIDCPPDLGLICQNGLMISDYYIIPTIPDILSTYGIPQIINRIGRLQRENSISIQPLGLVISKYRQQSEIHKNQANLLKIHAPKAGYRQVFNTFIPEGNLAAMVMDYTLHFNSLREKYNYSKYYQIYKALTEEVLSCVQ | not soluble |
| MSLSTVISSEASNYDHWAWLYNHTLGPRYSEQKIAPLARAVLSQLPNGASVLDLCCGTGHLAKLMADRGYAVTGLDGSQDMINHARGNAPDLEFVLGDARDFTFEQPFDGVVCTSASLNHIQNTEDLRKVFSSVRRCLKDEGIFAFDINHPGQMARYWRDVPAEGELTDDYAWLITPRYNSQSNEGSFTVEIHTRPKAARFSLAEAAYRLAARLLSNRRRLALIARFGIPGNNWERHSVTNPVWGHDLDTVTELLRASGFSVKMRSTDGGPVTDERAVYFLCTKIAGDRAGQEVTKEAVEEGHHHHHH | soluble |
| MGKNLSLRQDDAQHALSANTSSAYNSVYDFLRYHDRGDGLTVNGKTSYSIDQAAAQITRENVSWNGTNVFGKSANLTFKFLQSVSSIPSGDTGFVKFNAEQIEQAKLSLQSWSDVANLTFTEVTGNKSANITFGNYTRDASGNLDYGTQAYAYYPGNYQGAGSSWYNYNQSNIRNPGSEEYGRQTFTHEIGHALGLAHPGEYNAGEGDPSYNDAVYAEDSYQFSIMSFWGENETGADYNGHYGGAPMIDDIAAIQRLYGANMTTRTGDSVYGFNSNTDRDFYTATDSSKALIFSVWDAGGTDTFDFSGYSNNQRINLNEGSFSDVGGLKGNVSIAHGVTIENAIGGSGNDILVGNSADNILQGGAGNDVLYGGAGADTLYGGAGRDTFVYGSGQDSTVAAYDWIADFQKGIDKIDLSAFRNEGQLSFVQDQFTGKGQEVMLQWDAANSITNLWLHEAGHSSVDFLVRIVGQAAQSDIIV | soluble |
| MQTEFLTGAPTRSAAFPVTGGDWGTAGILQTPTARMNDAGEASLSMSHVSPYTRLNFALQPLDWLEIGFRYTDVSNQPYGPVSLSGTQSYKDKSIDAKIRLWRESAYLPDVAVGFRDIAGSGLFSGEYLVASKRTGPFDWSVGLGWGYMGARGNLRNPLSMISRRFDDRANSATPNGGELGYGSWFRGRVSPFGGVQYQTPDERLILKAEYDGNDYRHEPFGQVLKERSPFNFGAVYRATRNIDLSVGFERGTRVMFGVSLHGNLKRATMPKLGNPPPVPVTQPAANAGPRTHAAGAPTRGGRSAVASTPRIEGASPSPFDRDWSDTVAQLQAQTNWHVRSIRALGMDLVIEFDDVDAFYLQDQIDRIATILNRDAPLNVRTFHVVALTHGVPVADYQVQRTQWFASRTRALVPSEVAPATTLGRPLTNQSIDMLPPLFEQRPRAFVLSVGPGYQQTLGGPNGFLLYQISANAYGELRMPGGAWLGGELNVGLVDNYGKFTYTADSKLPRVRTYLREYLTTSRVTLPLLQLTKIGRLGNDQFYSVYGGLLESMFAGVGVEWLYRPAHSRLAIGVDVNAVRQRGFRQDFSMRGYKTLTGHVTAYWDTGWQGVQINLSVGQYLAKDKGATLDISRRFRNGVVIGAYATKTNVSPAQFGEGSFDKGIYVTIPFDAMMTRSSSSIANLRWNPVTRDGGAKLDRRYPLYDLTDMGERRSLWYAPPDGAVSPLEHHHHHH | not soluble |
| MYQEIKGVRVWGDPIENAVDQAVTCAQHGDVEQVLLMADHHKGYSQPVGGVVVYRNQISPSGVGYDIACGNKAVKTNVKYVDIKDQLSKIMDELAQSISFGVGRSNREKVEHDLFDDSDWSVYQEIGKQEHDNLKTLAKKQLGTVGSGNHFVDLFVEEATGDVWVANHFGSRGFGHKTASGFMNLAKGVKFSDKVKGERMEDAPTLLDLDSEIGDMYYRAMQLAGKYAYAGRDYVIQKVLDILQAEAVFSVHNHHNFAWKETHNGEEYVIVRKGATPSAPNQWGFIGGSMGDISVIVRGVDSEENRDAFYSTVHGAGRIMSRTEAAGKMNWKTRTRSGGKITPDQMKQAIKEYGVELRGGGTDESPFVYKNLADVLEAHKQTLSIEHVLKPIGVCMAGEGEFDPYKDMAGDPLEHHHHHH | soluble |
| MGSDKIHHHHHHMIEQIGSVEEADAGKVLESLVLSFSPSLLPLRQRWRNNGLSADFLGDYVTTFFPGAGDDTTTADRQKHAKAAVSYIANELLENAMKYSAAESTRPITITLSLEAERITFIETNPVSRARAATFHSYATELIASDPMEMYLRILEEERSDDDGSGLGLITMINDYNASLSWRFEDPGEDTVMVSTIVQIPV | not soluble |
| MAHHHHHHMVSFSLIIYTSLRLAHACDARNCTLQQLGRQLEAVVTVCDESSSTTTTESTSERANNASSAADATRTGQGADAAQQVHSTTQAKRASLARDSDFKSSSEIAAFSVLRAWCPPPTARILILGMGGNSMAHALRVVLGAEALIEVVEVEPAVVVSCMQMGTLHESDTKTKVHLQDADQCLATLPPTTYDFIYMDIFEPIQATMRNLHPWVLATRTLLKPGGLLVMNDHHLPSAAGVAPYAKVFGEGNVQAVNLRGWSESIVVCVAPGDAATDKYSLDVSKTHADIAFNIYETLVPGWLPHFSWLVKAKTYRHEGVRCRLWTS | soluble |
| MIDENLIKINLICESQDEVFHYLATLVVDNGYANNTESVVQALKLRESEGTTGMMEGFAIPHAKDKSIVKPSIAILKLKTGVEWHSMDGQLINNVIALFIPEKEAGTTHLKVLSQIARLLVNKTFKEKIKEADTILELKELLTEKLDLTS | not soluble |
| MVAVPEGYESLLERPLYGHLATVRPDGTPQVNAMWFAWDGEVLRFTHTTKRQKYRNIKANPAVAMSVIDPDNPYRYLEVRGLVEDIVPDPTGAFYLKLNDRYDGPLTEPPADKADRVIIVVRPTAFSKQVA | soluble |
| SMTTNVGDSTLADLLDHSCTSGSGSGLPFLVQRTVARQITLLECVGKGRYGEVWRGSWQGENVAVKIFSSRDEKSWFRETELYNTVMLRHENILGFIASDMTSRHSSTQLWLITHYHEMGSLYDYLQLTTLDTVSCLRIVLSIASGLAHLHIEIFGTQGKPAIAHRDLKSKNILVKKNGQCCIADLGLAVMHSQSTNQLDVGNNPRVGTKRYMAPEVLDETIQVDCFDSYKRVDIWAFGLVLWEVARRMVSNGIVEDYKPPFYDVVPNDPSFEDMRKVVCVDQQRPNIPNRWFSDPTLTSLAKLMKECWYQNPSARLTALRIKKTLTKID | soluble |
| MGSDKIHHHHHHMVERALALSELNQSEPVELVSNSKPSYPDLGEAVSVEVLVGWGKEAIAIIRDNYPDVLCNSDWECDVETTRLVNTQGLDCYYSDTTLSCYMSAEWVRGDDFLSVSDGQTQRDYLDPEKLAYQILQRLVWAKENVPPPNGRVPVLFTSKAADMLWGTAQAALNGKRVLEAASPWAERVGKQVIAPSLTLYQDPQAGPYSCPFDDEGTPTKSLVFIEKGILQNYYCDRTTGRQLGNSTTGNGFRPGLGSYPTPGLFNFLIKPGSKSLKDLIQNMDDGLIVDQMLGGSGGISGDFSINIELGYRVQKGQVIGRVKDTMVAGNVYTALKQVELGSDADWNGSCYTPSLIVEGLSTTGRNN | not soluble |
| MSLKMIISYGMPKSASTFAWLVIKKICLNSRLDDVVDLSTAAKGNDSVEDYIDGSVKVNAAQITREVGERCCVIKTHSSAVHFRTLVGGSAFFLPFAQHRDPRDVALSLMDHARRSRELGIADYADCLSIEGCLPVIDSSIENFIEWVDQYSAIPISYDYLCFNGLACLSFIASALDCDVDCAAILKGFERKESIAQFNKGIRHRWVDEMPQAQARMLFRRYEEYYDRFGAEGHHHHHH | not soluble |
| SRLKLFSILSMMLLRPKDTVDSQGQFRGYLDMVINDILAPNLQWHAGRTAAAIRTAAISCLWALISSDILSAKQVQEAQETLMPQVLATLEDDSQTTRLMSCRIINMFLKNSGDTMEPEKFLKVYPELLKRLDDVSNDVRMAAASALLTWLKCIESLDGKSAYQSSVQFLYRELLVHLDDPESAIQDTVLEVLKEGSVLFPDVLVRETEAVVHKHRSATYCEQLLQHMQTMAAAR | soluble |
| MGSSHHHHHHSSGLVPRGSHMDKGKSVKSTEKSVGMPPKTPKTDNNAHVDNEFLILQVNDAVFPIGSYTHSFGLETYIQQKKVTNKESALEYLKANLSSQFLYTEMLSLKLTYESALQQDLKKILGVEEVIMLSTSPMELRLANQKLGNRFIKTLQAMNELDMGEFFNAYAQKTKDPTHATSYGVFAASLGIELKKALRHYLYAQTSNMVINCVKSVPLSQNDGQKILLSLQSPFNQLIEKTLELDESHLCTASVQNDIKAMQHESLYSRLYMS | soluble |
| MEARNAEGLESCIEKIQEVKLSSFAELKAFRERKVALITGITGQDGSYLAELLLSKGYKVHGIIRRSSSFNTARIEHLYGNPVTHNGSASFSLHYGDMTDSSCLIKLISTIEPTEIYHLAAQSHVKVSFDLPEYTAEVDAVGTLRLLDAIHACRLTEKVRFYQASTSELYGKVQEIPQSELTPFYPRSPYAVAKMYGYWIVVNYREAYKMFACNGILFNHESPRRGETFVTRKITRSVAKISLRQQEHIELGNLSALRDWGHAKEYVEAMWRILQQDTPDDFVIATGKQFSVREFCNLAFAEIGEQLVWEGEGVDEVGKNQDGVVRVKVSPKYYRPTEVETLLGNPAKARKTLGWEPKITVPELVKEMVASDIALMEADPMA | not soluble |
| MDPVIKLVAHAQEMSMTIPRRQACMVYGKLNVTLKKGDVQEERDKRVTDGYVHIPEDMPQGRFDFGFTREDADVNIGTGQSTYELALDTAARRITGQVLFEQDIIAPGFGDWRPLIDFSCGDLVGVRIWGKELVLPVTSITRETTGWRAHVGGQLINDRRKIISENRKILADIESERRER | not soluble |
